Reference: patent publication US20250186614A1, “COMPACT DRUG RESPONSIVE DOMAINS FOR REGULATION OF FUNCTION/ABUNDANCE AND DELIVERY OF POLYPEPTIDE PAYLOADS” (OBSIDIAN THERAPEUTICS, INC., priority 2022, published 2025)
Where two headings read alike, the source gives them in different places.

B1: FKBP-154: FKBP13 DRD Q72R, S79W, Q84W, A117W, M54A; SEQ ID NO: 104 (protein)
chain: HCPIKSRKGDVLHAHYTGKLEDGTEFDSSLPRNQPFVFSLGTGEVIKGWDQGLLGMCEGEKRKLVIPSELGYGERGWPPKIPGGATLVFEVELLKIER
modifications: Description of sequence: FKBP13-AcGFP-mCherry Fusion; Construct Name: FKBP-154; FKBP13 DRD in Construct : FKBP13 (mutated to match FKBP12 active site Q72R S79W Q84W A117W) (DRD M54A)
B2: FKBP-167: FKBP13 DRD-AcGFP construct of Table 10 (protein)
chain: HCPIKSRKGDVLHAHYTGKLEDGTEFDSSLPRNQPFVFWLGTGRRIKGWDQGLLGMCEGEKRKLVIPSELGYGERGWPPKIPGGATLVFEVELLKIER
modifications: Description of sequence: Construct Name: FKBP-167; Mutation(s): Q72R S79W Q84R A117W DRD M54A V85R
B3: FKBP-152: FKBP13 DRD Q72R, Q84W, A117W, M54A; SEQ ID NO: 102 (protein)
chain: HCPIKSRKGDVLHAHYTGKLEDGTEFDSSLPRNQPFVFSLGTGWVIKGWDQGLLGMCEGEKRKLVIPSELGYGERGWPPKIPGGATLVFEVELLKIER
modifications: Description of sequence: FKBP13-AcGFP-mCherry Fusion; Construct Name: FKBP-152; FKBP13 DRD in Construct : FKBP13 (mutated to match FKBP12 active site Q72R Q84W A117W) (DRD M54A)
B4: FKBP-166 (protein)
chain: HCPIKSRKGDVLHAHYTGKLEDGTEFDSSLPRNQPFVFWLGTGERIKGWDQGLLGMCEGEKRKLVIPSELGYGERGWPPKIPGGATLVFEVELLKIER
modifications: Description of sequence: Construct Name: FKBP-166; Mutation(s): Q72R S79W Q84E A117W DRD M54A V85R
B5: FKBP-172 (protein)
chain: HCPIKSRKGDVLHAHYTGKLEDGTEFDSSLPRNQPFVFSLGTGEVIKGWDQGLLGWCEGEKRKLVIPSELGYGERGWPPKIPGGATLVFEVELLKIER
modifications: Description of sequence: Construct Name: FKBP-172; Mutation(s): Q72R Q84E A117W DRD M54A M96W
B6: FKBP-169 (protein)
chain: HCPIKSRKGDVLHAHYTGKLEDGTEFDSSLPRNQPFVFSLGWGEVIKGWDQGLLGMCEGEKRKLVIPSELGYGERGWPPKIPGGATLVFEVELLKIER
modifications: Description of sequence: Construct Name: FKBP-169; Mutation(s): Q72R T82W Q84E A117W DRD M54A
B7: FKBP-151: FKBP13 DRD Q72R, Q84R, A117W, M54A; SEQ ID NO: 101 (protein)
chain: HCPIKSRKGDVLHAHYTGKLEDGTEFDSSLPRNQPFVFSLGTGRVIKGWDQGLLGMCEGEKRKLVIPSELGYGERGWPPKIPGGATLVFEVELLKIER
modifications: Description of sequence: FKBP13-AcGFP-mCherry Fusion; Construct Name: FKBP-151; FKBP13 DRD in Construct : FKBP13 (mutated to match FKBP12 active site Q72R Q84R A117W) (DRD M54A)
B8: FKBP-158: FKBP13 DRD Q72R, Q84E, A117W, M54A G111E; SEQ ID NO: 108 (protein)
chain: HCPIKSRKGDVLHAHYTGKLEDGTEFDSSLPRNQPFVFSLGTGEVIKGWDQGLLGMCEGEKRKLVIPSELEYGERGWPPKIPGGATLVFEVELLKIER
modifications: Description of sequence: FKBP13-AcGFP-mCherry Fusion; Construct Name: FKBP-158; FKBP13 DRD in Construct : FKBP13 (mutated to match FKBP12 active site Q72R Q84E A117W) (DRD M54A G111E)
B9: FKBP-159: FKBP13 DRD Q72R, Q84E, A117W, M54A G111Y; SEQ ID NO: 109 (protein)
chain: HCPIKSRKGDVLHAHYTGKLEDGTEFDSSLPRNQPFVFSLGTGEVIKGWDQGLLGMCEGEKRKLVIPSELYYGERGWPPKIPGGATLVFEVELLKIER
modifications: Description of sequence: FKBP13-AcGFP-mCherry Fusion; Construct Name: FKBP-159; FKBP13 DRD in Construct : FKBP13 (mutated to match FKBP12 active site Q72R Q84E A117W) (DRD M54A G111Y)
B10: FKBP-168: FKBP13 DRD-AcGFP construct of Table 10 (protein)
chain: HCPIKSRKGDVLHAHYTGKLEDGTEFDSSLPRNQPFVFSLGWGRRIKGWDQGLLGMCEGEKRKLVIPSELGYGERGWPPKIPGGATLVFEVELLKIER
modifications: Description of sequence: Construct Name: FKBP-168; Mutation(s): Q72R T82W Q84R A117W DRD M54A V85R
B11: FKBP-171 (protein)
chain: HCPIKSRKGLVLHAHYTGKLEDGTEFDSSLPRNQPFVFSLGTGEVIKGWDQGLLGMCEGEKRKLVIPSELGYGERGWPPKIPGGATLVFEVELLKIER
modifications: Description of sequence: Construct Name: FKBP-171; Mutation(s): Q72R Q84E A117W DRD M54A D50L
B12: FKBP-170 (protein)
chain: HCPIKSRKGDVLHAHYTGKLEDGTEFDSSLPRNQPFVFSLGWGERIKGWDQGLLGMCEGEKRKLVIPSELGYGERGWPPKIPGGATLVFEVELLKIER
modifications: Description of sequence: Construct Name: FKBP-170; Mutation(s): Q72R T82W Q84E A117W DRD M54A V85R
B13: FKBP-156: FKBP13 DRD Q72R, T82W, Q84W, A117W, M54A; SEQ ID NO: 106 (protein)
chain: HCPIKSRKGDVLHAHYTGKLEDGTEFDSSLPRNQPFVFSLGWGWVIKGWDQGLLGMCEGEKRKLVIPSELGYGERGWPPKIPGGATLVFEVELLKIER
modifications: Description of sequence: FKBP13-AcGFP-mCherry Fusion; Construct Name: FKBP-156; FKBP13 DRD in Construct : FKBP13 (mutated to match FKBP12 active site Q72R T82W Q84W A117W) (DRD M54A)

Tests used:
Type in all cases: cell-based
Jurkat cells [1] = assay: Tacrolimus dose response of FKBP13-AcGFP-mCherry constructs stably transduced into Jurkat cells, GFP MFI by flow cytometry; parameters: Basal: unit not given here; details: for Fold Change / EC90 / Tacrolimus FC: tacrolimus; for Fold Change: Jurkat cells stably transduced, Table 7; for Basal / FC / At 10 uM: FIG. 44; for EC90 / Tacrolimus FC: Table 14; for Tacrolimus FC: fold change
Procedure, shortened: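 GFP geometric MFI was read by flow cytometry in mCherry+ cells and curve-fitted against tacrolimus dose. Cells were Jurkat E6-1, lentivirus-transduced with FKBP13-AcGFP-mCherry fusion constructs until 10-25% mCherry-positive on day 5 post-transduction.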

Jurkat cells [2] = assay: Sirolimus (rapamycin) dose response of FKBP13 constructs stably transduced into Jurkat cells, flow cytometry; details: for Fold Change: rapamycin (sirolimus), Jurkat cells stably transduced, Table 8; for EC50 (tacrolimus)/ EC50 (rapamycin): ratio of Table 7 and Table 8 EC50 values; for EC50 (tacrolimus)/ EC50 (rapamycin) / Fold change (tacrolimus)/ Fold change (rapamycin): Jurkat cells; for Fold change (tacrolimus)/ Fold change (rapamycin): ratio of Table 7 and Table 8 fold changes; for EC90 / Rapamycin FC: rapamycin, Table 14; for Rapamycin FC: fold change
Method: Normalized EC50 values were calculated from the mCherry normalized GFP MFI values, which accounted for any differences in mCherry intensity between samples.

[3] = Example 4: dose response of FKBP constructs 160-255, Ec50, Ec90 and fold change (raw and normalized to mCherry); details: for FC (fold change): fold change during initial analysis
Method: Additional experiments were performed for constructs FKBP-160-292.

[4] = read-out: Tacrolimus EC90 (Norm), normalized
[5] = FKBP constructs 160-255, not normalized, read-out: EC90
[6] = normalized to mCherry, read-out: EC90 (Norm)
[7] = normalized, read-out: Rapamycin EC90 (Norm)

Molecule	Fold Change (Jurkat cells [1])	Fold Change (Jurkat cells [2])	EC50 (tacrolimus)/ EC50 (rapamycin) (Jurkat cells [2])	Fold change (tacrolimus)/ Fold change (rapamycin) (Jurkat cells [2])	Basal (Jurkat cells [1])	FC (Jurkat cells [1])	At 10 uM (Jurkat cells [1])	EC90 (Jurkat cells [1]; [4])	EC90 (Jurkat cells [1]; read-out: Tacrolimus EC90)	Tacrolimus FC (Jurkat cells [1])	EC90 [3, 5]	FC (fold change) [3]	EC90 [3, 6]	EC90 (Jurkat cells [2]; read-out: Rapamycin EC90)	Rapamycin FC (Jurkat cells [2])	EC90 (Jurkat cells [2]; [7])
B1	14	3.9	0.35	3.59	–	–	–	–	–	–	–	–	–	–	–	–
B2	–	–	–	–	96	47.22	4533	334 nM	348 nM	46.8	348 nM	46.8	334 nM	1720 nM	11.3	1710 nM
B3	30.34	23.17	0.55	1.31	–	–	–	–	–	–	–	–	–	–	–	–
B4	–	–	–	–	–	–	–	223 nM	220 nM	46	220 nM	46.0	223 nM	1640 nM	15.7	1580 nM
B5	–	–	–	–	–	–	–	1310 nM	1050 nM	63.1	1050 nM	63.1	1310 nM	2140 nM	21.3	2290 nM
B6	–	–	–	–	–	–	–	493 nM	448 nM	50.1	448 nM	50.1	493 nM	1390 nM	10.8	1420 nM
B7	42.03	10.15	0.91	4.14	–	–	–	–	–	–	–	–	–	–	–	–
B8	1.25	0.84	–	1.49	–	–	–	–	–	–	–	–	–	–	–	–
B9	1.06	0.81	1.22	1.31	–	–	–	–	–	–	–	–	–	–	–	–
B10	–	–	–	–	72.7	60.19	4376	351 nM	342 nM	60.2	342 nM	60.2	351 nM	1380 nM	18	1330 nM
B11	–	–	–	–	–	–	–	10100 nM	8160 nM	60.3	8160 nM	60.3	10100 nM	16000 nM	14.1	18000 nM
B12	–	–	–	–	–	–	–	138 nM	133 nM	47.6	133 nM	47.6	138 nM	785 nM	16.1	818 nM
B13	18.36	8.77	0.56	2.09	–	–	–	–	–	–	–	–	–	–	–	–
